As usually defined, the Km is the concentration of substrate that gives half-maximal velocity. The kcat is the number of substrate molecules converted per active site and unit of time at saturation. The kcat/Km is the second-order rate constant that governs catalysis at low substrate concentration.

Series [1] addresses T1, PyaGRHPR (Pyrococcus yayanosii, UniProt F8AEA4).
T1 construct: gene gyaR; synthetic codon-optimised gene in pET41c, E. coli BL21(DE3)-RIL; no tag mentioned; heat step 85 °C, Resource Q, Superose 12; 66 kDa homodimer
T1 sequence (F8AEA4 1-333): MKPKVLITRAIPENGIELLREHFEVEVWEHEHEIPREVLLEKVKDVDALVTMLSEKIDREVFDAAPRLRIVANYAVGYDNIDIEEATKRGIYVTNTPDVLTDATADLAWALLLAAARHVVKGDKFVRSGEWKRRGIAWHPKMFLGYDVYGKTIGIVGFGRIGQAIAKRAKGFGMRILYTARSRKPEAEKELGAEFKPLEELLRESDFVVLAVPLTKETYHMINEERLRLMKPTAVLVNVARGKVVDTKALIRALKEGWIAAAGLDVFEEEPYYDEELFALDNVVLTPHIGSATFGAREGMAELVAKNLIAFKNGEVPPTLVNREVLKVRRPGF
Nature of the series: NAD(P)H absorbance at […] nm. The conditions noted are these: co-substrate hydroxypyruvate or glyoxylate, Tris-HCl 100 mM pH 8.0, 50 °C. It is filed as biochemical.

The target of series [2] is T2, PfuGRHPR (Pyrococcus furiosus, UniProt Q8U3Y2).
T2 construct: gene gyaR; synthetic codon-optimised gene in pET41c, E. coli BL21(DE3)-RIL; no tag mentioned; heat step 85 °C, Resource Q, Superose 12; 66 kDa homodimer
T2 sequence (Q8U3Y2 1-336): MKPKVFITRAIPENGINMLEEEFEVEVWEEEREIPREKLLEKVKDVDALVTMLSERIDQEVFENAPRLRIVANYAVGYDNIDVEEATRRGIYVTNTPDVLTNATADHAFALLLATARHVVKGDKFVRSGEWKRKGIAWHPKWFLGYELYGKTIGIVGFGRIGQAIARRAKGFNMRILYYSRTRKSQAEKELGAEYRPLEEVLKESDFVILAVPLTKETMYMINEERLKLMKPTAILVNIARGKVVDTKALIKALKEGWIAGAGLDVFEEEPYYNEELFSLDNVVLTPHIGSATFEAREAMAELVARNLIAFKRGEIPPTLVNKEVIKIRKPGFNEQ
Nature of the series: NAD(P)H absorbance at […] nm. It is filed as biochemical. The conditions noted are these: co-substrate hydroxypyruvate or glyoxylate, Tris-HCl 100 mM pH 8.0, 50 °C.

Series [3] has as its target T2, PfuGRHPR. The series can be described thus: crystal structure […] Å. It is filed as binding.
In series [4] the target is T1, PyaGRHPR. Nature of the series: crystal structure […] Å. It is filed as binding. The conditions noted are these: copurified.
The target in the next series is T3, PhoGRHPR (Pyrococcus horikoshii, UniProt O58320).
T3 construct: gene gyaR; synthetic codon-optimised gene in pET41c, E. coli BL21(DE3)-RIL; no tag mentioned; heat step 85 °C, Resource Q, Superose 12; 66 kDa homodimer
T3 sequence (O58320 1-334): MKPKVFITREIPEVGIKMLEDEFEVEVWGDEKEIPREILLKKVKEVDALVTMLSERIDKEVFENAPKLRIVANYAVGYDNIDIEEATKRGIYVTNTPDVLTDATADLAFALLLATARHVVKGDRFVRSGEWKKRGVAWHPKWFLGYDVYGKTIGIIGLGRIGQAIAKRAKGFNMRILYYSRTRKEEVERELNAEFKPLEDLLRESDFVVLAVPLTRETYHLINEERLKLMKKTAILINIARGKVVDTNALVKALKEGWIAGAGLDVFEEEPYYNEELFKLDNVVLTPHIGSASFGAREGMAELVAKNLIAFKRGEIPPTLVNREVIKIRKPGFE
The series can be described thus: NAD(P)H absorbance at […] nm, substrate inhibition fit. The class given is biochemical. The following applies: NADH 0.5 mM, Tris-HCl 100 mM pH 8.0, 50 °C.

In series [5] the target is T1, PyaGRHPR. Described as above. It is filed as biochemical. The following applies: NADH 0.5 mM, Tris-HCl 100 mM pH 8.0, 50 °C.
Series [6] addresses T2, PfuGRHPR. The series is described as above. The class given is biochemical. The conditions noted are these: NADH 0.5 mM, Tris-HCl 100 mM pH 8.0, 50 °C.
Substrate in series [7]: O=C(O)C(=O)CO
The series can be described thus: purified protein. The class given is biochemical, Pyrococcus yayanosii. The conditions noted are these: NADH 0.5 mM, Tris-HCl 100 mM pH 8.0, 50 °C.

Substrate in series [8]: O=CC(=O)O
Nature of the series: purified protein. The class given is biochemical, Pyrococcus yayanosii. The conditions noted are these: NADH 0.5 mM, Tris-HCl 100 mM pH 8.0, 50 °C.

Substrate in series [9]: O=C(O)C(=O)CO
The series can be described thus: purified protein. It is filed as biochemical, Pyrococcus horikoshii. The following applies: NADH 0.5 mM, Tris-HCl 100 mM pH 8.0, 50 °C.

Substrate in series [10]: O=CC(=O)O
Nature of the series: purified protein. The class given is biochemical, Pyrococcus horikoshii. The conditions noted are these: NADH 0.5 mM, Tris-HCl 100 mM pH 8.0, 50 °C.

Substrate in series [11]: O=C(O)C(=O)CO
Nature of the series: purified protein. It is filed as biochemical, Pyrococcus furiosus. The following applies: NADH 0.5 mM, Tris-HCl 100 mM pH 8.0, 50 °C.

Substrate in series [12]: O=CC(=O)O
The series can be described thus: purified protein. The class given is biochemical, Pyrococcus furiosus. The following applies: NADH 0.5 mM, Tris-HCl 100 mM pH 8.0, 50 °C.

Turning to `NC(=O)C1=CN([C@@H]2O[C@H](COP(=O)(O)OP(=O)(O)OC[C@H]3O[C@@H](n4cnc5c(N)ncnc54)[C@H](OP(=O)(O)O)[C@@H]3O)[C@@H](O)[C@H]2O)C=CC1` [NADPH], the KM entry at PyaGRHPR [1] and on PfuGRHPR [2] was “Archaeal GRHPR presents higher affinity for NADPH compared to NADH” each time. Also, at PfuGRHPR [3] (ternary complex with glyoxylate, copurified, modelled as NADP(H), oxidation state not resolved), the “crystal structure 1.40 Å” value is listed as “Both structures include a cofactor molecule, unambiguously modeled as NADP(H)”. Besides, the “crystal structure 2.0 Å” value on PyaGRHPR [4] (ternary complex with D-glycerate, modelled as NADP(H), oxidation state not resolved) is “Both structures include a cofactor molecule, unambiguously modeled as NADP(H)”.

In the case of `NC(=O)C1=CN([C@@H]2O[C@H](COP(=O)(O)OP(=O)(O)OC[C@H]3O[C@@H](n4cnc5c(N)ncnc54)[C@H](O)[C@@H]3O)[C@@H](O)[C@H]2O)C=CC1` [NADH], the KM entry on PyaGRHPR [1] and at PfuGRHPR [2] was “Archaeal GRHPR presents higher affinity for NADPH compared to NADH” each time.

With `O=C(O)C(=O)CO` [hydroxypyruvate], on PhoGRHPR, the “PhoGRHPR / NADH” value amounted to 3820 ± 680 µM. The “PyaGRHPR / NADH” value on PyaGRHPR [5] worked out at 760 ± 200 µM. In addition, the “PfuGRHPR / NADH” value at PfuGRHPR [6] is 350 ± 140 µM.

Consider `O=CC(=O)O` [glyoxylate], for which the “crystal structure 1.40 Å” value on PfuGRHPR [3] (ternary complex with NADP(H), ligand carried over from E. coli, active site, further molecule in tunnel) is given as “the determination of the PfuGRHPR structure reveals a ternary complex in the presence of glyoxylate”.

In the case of `O=C(O)[C@H](O)CO` [D-glycerate], the “crystal structure 2.0 Å” value at PyaGRHPR [4] (ternary complex with NADP(H), active site, density did not distinguish D-glycerate from hydroxypyruvate) was “The PyaGRHPR structure contains D-glycerate, product of HPR activity”.

B1: PyaGRHPR (Pyrococcus yayanosii CH1) (protein)
chain: MKPKVLITRAIPENGIELLREHFEVEVWEHEHEIPREVLLEKVKDVDALVTMLSEKIDREVFDAAPRLRIVANYAVGYDNIDIEEATKRGIYVTNTPDVLTDATADLAWALLLAAARHVVKGDKFVRSGEWKRRGIAWHPKMFLGYDVYGKTIGIVGFGRIGQAIAKRAKGFGMRILYTARSRKPEAEKELGAEFKPLEELLRESDFVVLAVPLTKETYHMINEERLRLMKPTAVLVNVARGKVVDTKALIRALKEGWIAAAGLDVFEEEPYYDEELFALDNVVLTPHIGSATFGAREGMAELVAKNLIAFKNGEVPPTLVNREVLKVRRPGF
notes: synthetic codon-optimised gene in pET41c, E. coli BL21(DE3)-RIL; no tag mentioned; heat step 85 °C, Resource Q, Superose 12; 66 kDa homodimer
Turning to B1, in the series “purified protein [7]”, the Km was determined as 410 ± 110 µM, the kcat was determined as 25 ± 5 s⁻¹ and the kcat/Km worked out at 60000 ± 25000 M⁻¹ s⁻¹. Besides, in “purified protein [8]”, the Michaelis-Menten constant (Km) was determined as 1500 ± 140 µM, the kcat worked out at 4.8 ± 0.2 s⁻¹ and the catalytic efficiency (kcat/Km) is 3000 ± 500 M⁻¹ s⁻¹.

B2: PhoGRHPR (Pyrococcus horikoshii OT3) (protein)
chain: MKPKVFITREIPEVGIKMLEDEFEVEVWGDEKEIPREILLKKVKEVDALVTMLSERIDKEVFENAPKLRIVANYAVGYDNIDIEEATKRGIYVTNTPDVLTDATADLAFALLLATARHVVKGDRFVRSGEWKKRGVAWHPKWFLGYDVYGKTIGIIGLGRIGQAIAKRAKGFNMRILYYSRTRKEEVERELNAEFKPLEDLLRESDFVVLAVPLTRETYHLINEERLKLMKKTAILINIARGKVVDTNALVKALKEGWIAGAGLDVFEEEPYYNEELFKLDNVVLTPHIGSASFGAREGMAELVAKNLIAFKRGEIPPTLVNREVIKIRKPGFE
notes: as for B1
Consider B2, for which, in “purified protein [9]”, the Km came to 70 ± 11 µM, the turnover number (kcat) amounted to 4.5 ± 0.5 s⁻¹ and the kcat/Km amounted to 65000 ± 20000 M⁻¹ s⁻¹. Further, in the series “purified protein [10]”, the Km was determined as 160 ± 25 µM, the kcat was determined as 4 ± 0.5 s⁻¹ and the kcat/Km stood at 25000 ± 5000 M⁻¹ s⁻¹.

B3: PfuGRHPR (Pyrococcus furiosus DSM 3638) (protein)
chain: MKPKVFITRAIPENGINMLEEEFEVEVWEEEREIPREKLLEKVKDVDALVTMLSERIDQEVFENAPRLRIVANYAVGYDNIDVEEATRRGIYVTNTPDVLTNATADHAFALLLATARHVVKGDKFVRSGEWKRKGIAWHPKWFLGYELYGKTIGIVGFGRIGQAIARRAKGFNMRILYYSRTRKSQAEKELGAEYRPLEEVLKESDFVILAVPLTKETMYMINEERLKLMKPTAILVNIARGKVVDTKALIKALKEGWIAGAGLDVFEEEPYYNEELFSLDNVVLTPHIGSATFEAREAMAELVARNLIAFKRGEIPPTLVNKEVIKIRKPGFNEQ
notes: as for B1
As for B3, in “purified protein [11]”, the Michaelis constant (Km) came to 140 ± 55 µM, the kcat is 10 ± 5 s⁻¹ and the kcat/Km is 75000 ± 50000 M⁻¹ s⁻¹. In “purified protein [12]”, the Km was determined as 1800 ± 25 µM, the kcat worked out at 13 ± 0.5 s⁻¹ and the kcat/Km turned out to be 7000 ± 500 M⁻¹ s⁻¹.

These data come from PMC4749974, “New insights into the mechanism of substrates trafficking in Glyoxylate/Hydroxypyruvate reductases” (Scientific Reports, 2016).
